This note sets out measurements from article PMC3119658, “The Naturally Processed CD95L Elicits a c-Yes/Calcium/PI3K-Driven Cell Migration Pathway” (PLoS Biology, 2011).

The target in series [1] is Ig-CD95L (extracellular region of CD95L fused to a dimerization domain (Ig) of the LIF receptor gp190) (UniProt P48023). The series is described as follows: SEC; gel filtration analysis, unpublished data. For orientation: In gel filtration, larger molecules generally elute earlier.
Series [2] concerns the molecule itself. The experiment in a line: SEC; size exclusion on S-200-HR Sephacryl columns; fractions harvested and cl-CD95L dosed by ELISA.

The term stoichiometry N denotes the number of molecules, sites or subunits per partner or assembly. As to “Ig-CD95L (extracellular region of CD95L fused to a dimerization domain (Ig) of the LIF receptor gp190) (from UniProt P48023 105-281) (ligand)”, in series [1], the stoichiometry N was 12.

B1: metalloprotease-cleaved CD95L (ligand, UniProt P48023 127-281, looked up)
chain: LEKQIGHPSPPPEKKELRKVAHLTGKSNSRSMPLEWEDTYGIVLLSGVKYKKGGLVINETGLYFVYSKVYFRGQSCNNLPLSHKVYMRNSKYPQDLVMMEGKMMSYCTTGQMWARSSYLGAVFNLTSADHLYVNVSELSLVNFEESQTFFGLYKL
notes: In the functional row the CD95L is the soluble ligand in sera of SLE patients, not the 293-made preparation; also called cl-CD95L; naturally processed CD95L; source: 293 cells transfected with wild type CD95L cDNA; exosome-free supernatant, concentrated (10 kDa cut-off) and dialyzed against PBS
Turning to B1, the “stoichiometry N” value in series [2] stood at 3.
